# Test results reported in paper PMC6736649.
# What was measured:
# Assay in all cases: ITC
# FEZ1_(92–198) (human) = FEZ1_(92–198) (human) (UniProt Q99689)
# FEZ1_(178–188) (human) = molecular target: FEZ1_(178–188) (human)
# [1] = molecular target: FEZ1_(92–198 182EA) (human) (UniProt Q99689)
substance,measurement,setting,value
Disulfide-crosslinked CA (A14C/E45C) hexamer (complex),Kd,FEZ1_(92–198) (human),300 nM
same,stoichiometry N (CA hexamer to FEZ1),FEZ1_(92–198) (human),1.3
same,Kd,FEZ1_(178–188) (human),180 nM
same,stoichiometry N (CA hexamer to FEZ1 (178–188)),FEZ1_(178–188) (human),1
same,stoichiometry N (CA hexamer to FEZ1),[1],1.6
